± gives the uncertainty stated by the source.
Experiment: self-splicing fitness, log relative to wild type (ln ratio); higher = more splicing; Tetrahymena group I intron in knt gene, E. coli kanamycin selection, DiMSum; sequences stand for … in CUCUCU…GGAGGGAAAAGUUAUCAGGCAUGCACCUGGUAGCUAGUCUUUAAACCAAUAGAUUGCAUCGGUUUAAAAGGCAAGACCGUCAAAUUGCGGGAAAGGGGUCAACAGCCGUUCAGUACCAAGUCUCAGGGGAAACUUUGAGAUGGCCUUGCAAAGGGUAUGGUAAUAAGCUGACGGACAUGGUCCUAACCACGCAGCCAAGUCCUAAGUCAACAGAUCUUCUGUUGAUAUGGAUGCAGUUCACAGACUAAAUGUCGGUCGGGGAAGAUGUAUUCUUCUCAUAAGAUAUAGUCGGACCUCUCCUUAAUGGGAGCUAGCGGAUGAAGUGAUGCAACACUGGAGCCGCUGGGAACUAAUUUGUAUGCGAAAGUAUAUUGAUUAGUUUUGGAGUACUCGUGGUCG
Procedure, shortened: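 Library with all eight P1ex-region intron nucleotides randomised, intron inside the knt kanamycin-resistance gene on pET-22b(+), in E. coli BL21(DE3). Cells grew overnight at 37°C or 30°C on LB agar with or without 25 μg/mL kanamycin (plus 100 μg/mL carbenicillin, 50 μM IPTG, 0.2% rhamnose), in six replicate transformations. Pooled colonies were amplicon-sequenced on Illumina HiSeq 2500. DiMSum fitness is the error-weighted combination of wild-type-normalised replicate fold changes, kanamycin versus none.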

Sequence | self-splicing fitness (ln) (30 °C) | self-splicing fitness (ln) (37 °C)
AGCUAGCAAUAUUACGGAUC | -1.26 ± 0.12 | -1.54 ± 0.16
AGCUAGCAAUAUUACGGCAU | -0.602 ± 0.11 | -0.476 ± 0.14
AGCUAGCAAUAUUACGGCCG | -0.198 ± 0.15 | 0.841 ± 0.19
AGCUAGCAAUAUUACGGGCA | -0.728 ± 0.12 | -0.379 ± 0.14
AGCUAGCAAUAUUACGGGGA | -2.22 ± 0.17 | -1.68 ± 0.14
AGCUAGCAAUAUUACGGUAA | -2.34 ± 0.26 | -1.53 ± 0.26
AGCUAGCAAUAUUACGGUCA | -0.312 ± 0.067 | 0.192 ± 0.083
AGCUAGCAAUAUUACGGUCG | -0.942 ± 0.072 | 0.371 ± 0.1
AGCUAGCAAUAUUACGUAAU | -3.29 ± 0.16 | -0.924 ± 0.11
AGCUAGCAAUAUUACGUCAG | -3.09 ± 0.18 | -2.84 ± 0.22
AGCUAGCAAUAUUACGUGAA | -1.58 ± 0.13 | -1.05 ± 0.15
AGGAAGCAAUAUUACGAAAG | -2.44 ± 0.23 | -1.19 ± 0.35
AGGAAGCAAUAUUACGACUG | -0.619 ± 0.094 | 0.0357 ± 0.1
AGGAAGCAAUAUUACGAGCC | -2.25 ± 0.23 | -1.32 ± 0.27
AGGAAGCAAUAUUACGAGGG | -3.63 ± 0.26 | -3.07 ± 0.29
AGGAAGCAAUAUUACGCAUC | – | -1.85 ± 0.41
AGGAAGCAAUAUUACGCCGU | -1.28 ± 0.24 | -0.629 ± 0.33
AGGAAGCAAUAUUACGCCUU | -2.67 ± 0.2 | -0.955 ± 0.18
AGGAAGCAAUAUUACGCGAA | -1.83 ± 0.12 | -1.38 ± 0.14
AGGAAGCAAUAUUACGCUUG | -2.64 ± 0.14 | -0.302 ± 0.11
AGGAAGCAAUAUUACGGGAC | -3.5 ± 0.46 | -1.67 ± 0.23
AGGAAGCAAUAUUACGGGAU | -2.75 ± 0.19 | -2.06 ± 0.18
AGGAAGCAAUAUUACGGGGU | -3.19 ± 0.21 | -3.13 ± 0.43
AGGAAGCAAUAUUACGGUAA | -2.47 ± 0.2 | -2.26 ± 0.18
AGGAAGCAAUAUUACGGUAU | -2.52 ± 0.28 | -0.707 ± 0.24

Sequence | self-splicing fitness (ln) (30 °C) | self-splicing fitness (ln) (37 °C)
AGGAAGCAAUAUUACGUAUU | -3.54 ± 0.24 | -0.582 ± 0.15
AGGAAGCAAUAUUACGUCAA | -3.36 ± 0.22 | -3.71 ± 0.27
AGGAAGCAAUAUUACGUUCG | -0.643 ± 0.071 | -0.266 ± 0.11
AGGCAGCAAUAUUACGAAGU | -2.32 ± 0.1 | -0.471 ± 0.098
AGGCAGCAAUAUUACGAAUU | -1.29 ± 0.064 | -1.4 ± 0.093
AGGCAGCAAUAUUACGACUG | -1.99 ± 0.14 | -2.18 ± 0.18
AGGCAGCAAUAUUACGACUU | -0.0645 ± 0.048 | 0.187 ± 0.065
AGGCAGCAAUAUUACGAGAU | -3.01 ± 0.15 | -2.26 ± 0.2
AGGCAGCAAUAUUACGAGCU | -0.501 ± 0.1 | -0.299 ± 0.13
AGGCAGCAAUAUUACGAGGA | -3.31 ± 0.28 | -2.55 ± 0.26
AGGCAGCAAUAUUACGAGUA | -1.94 ± 0.15 | -1.65 ± 0.14
AGGCAGCAAUAUUACGAUGA | -1.23 ± 0.13 | 0.113 ± 0.14
AGGCAGCAAUAUUACGCAGC | -4.21 ± 0.42 | -2.84 ± 0.31
AGGCAGCAAUAUUACGCAGG | -1.39 ± 0.084 | -1.17 ± 0.1
AGGCAGCAAUAUUACGCCAC | -3.45 ± 0.18 | -2.48 ± 0.3
AGGCAGCAAUAUUACGCGAU | -4.3 ± 0.42 | -1.93 ± 0.21
AGGCAGCAAUAUUACGCUCU | -2.31 ± 0.34 | –
AGGCAGCAAUAUUACGGCUG | -2.3 ± 0.35 | –
AGGCAGCAAUAUUACGUCAG | -1.92 ± 0.12 | -0.461 ± 0.12
AGGCAGCAAUAUUACGUGCA | -1.01 ± 0.1 | -0.142 ± 0.14
AGGCAGCAAUAUUACGUGCG | -0.971 ± 0.082 | -0.24 ± 0.11
AGGGAGCAAUAUUACGACAA | -3.29 ± 0.29 | -3.44 ± 0.42
AGGGAGCAAUAUUACGAGCA | -3.26 ± 0.25 | -2.64 ± 0.21
AGGGAGCAAUAUUACGAGGU | -2.64 ± 0.17 | -3.55 ± 0.31

From the supplement of paper PMC7877785
